Target: catalytic subunit α of PKA (PKA-Cα) (human (endogenous in HCT116 and HCT-15), UniProt P17612 1-351)
Experiment: co-IP; immunoprecipitation with anti-PKA Cα (4782, Cell Signaling) and protein-G Sepharose from 2 mg HCT116 lysate, 2 h at 4 °C, IP lysis buffer (50 mM tris/HCl pH 7.4, 150 mM NaCl, 0,25% NP-40); cells mitotically arrested (2 µM dimethylenastron, 16 h) or asynchronous with DMSO, E2, BPA, DES or G-1 for 48 h; Western blot, Centrin-pS170 band normalised to precipitated PKA Cα
Details: partners not purified

B1: Centrin-2 phosphorylated at serine 170 (Centrin-2-pS170) (natural protein, human (endogenous in HCT116 and HCT-15), UniProt P41208 1-172, looked up)
chain: MASNFKKANMASSSQRKRMSPKPELTEEQKQEIREAFDLFDADGTGTIDVKELKVAMRALGFEPKKEEIKKMISEIDKEGTGKMNFGDFLTVMTQKMSEKDTKEEILKAFKLFDDDETGKISFKNLKRVAKELGENLTDEELQEMIDEADRDGDGEVSEQEFLRIMKKTSLY
modifications: phosphoserine at 170
notes: Centrin-2, human, endogenous, the form phosphorylated at S170 as detected by the anti-Centrin-2-pS170 antibody (raised against Cys-LRIMKKT(pS)LY172); NM_004344.3 is printed for the Centrin wild-type expression vector, not for the endogenous protein of the co-IP; also called Centrin-pS170; phosphorylated Centrin-2; source: endogenous, HCT116 and HCT-15 lysates
In the case of B1, the “fold increase of co-precipitated Centrin-pS170 (normalised to PKA-Cα) with BPA, relative to DMSO” value is reported as 1.8 fold, the “fold increase of co-precipitated Centrin-pS170 (normalised to PKA-Cα) with DES, relative to DMSO” value is reported as 1.6 fold and the “fold increase of co-precipitated Centrin-pS170 (normalised to PKA-Cα) with E2, relative to DMSO” value is reported as 1.4 fold.

— paper PMC12673129, “A GPER-PKA-Centrin axis regulates centrosome numbers and centriole integrity in colon cancer cells” (Communications Biology, 2025)
